{
  "source": "paper PMC4070910",
  "about": "“Cathepsin S Signals via PAR2 and Generates a Novel Tethered Ligand Receptor Agonist” (PLoS ONE, 2014)",
  "molecules": {"B1": {"name": "cathepsin S: Recombinant human cathepsin S, cysteine protease, expressed in E.coli, refolded and activated (protein, UniProt P25774 115-331, looked up)", "Cathepsin S": "LPDSVDWREKGCVTEVKYQGSCGACWAFSAVGALEAQLKLKTGKLVSLSAQNLVDCSTEKYGNKGCNGGFMTTAFQYIIDNKGIDSDASYPYKAMDQKCQYDSKYRAATCSKYTELPYGREDVLKEAVANKGPVSVGVDARHPSFFLYRSGVYYEPSCTQNVNHGVLVVGYGDLNGKEYWLVKNSWGHNFGEEGYIRMARNKGNHCGIASFPSYPEI"}},
  "key": {"[1]": {"test_system": "cathepsin S", "assay": "Cathepsin S digestion of the human PAR2 N-terminal peptide (LC/MS/MS)", "assay_type": "biochemical", "details": "cathepsin S 1 µM, pH 7.0, 37°C, 20 minutes; MS/MS sequencing", "method": "Recombinant human cathepsin S was produced as follows. The human cathepsin S proprotein coding region was isolated by PCR using the forward and reverse primers […] CCTG and […] and a template of plasmid DNA containing the entire coding sequence of human cathepsin S. The PCR product was cut with Nco I and Xho I, and cloned into the pTYB4 expression vector from New England Biolabs for expression in E.coli. Cells were grown in LB medium induced with 0.3 mM IPTG, harvested by centrifugation, resuspended in lysis buffer A (0.5 M NaCl, 0.05 M Tris, 5 mM EDTA, pH 8.0) and lysed in a French press. The lysate was centrifuged and the protein was found predominantly in inclusion bodies which were dissolved in buffer B (10 mM DTT and 8 M urea), and refolded in the presence of buffer B containing 0.7 M L-arginine, 0.01 M glutathione, 0.001 M glutathione disulfide, and 0.005 M EDTA as described. […] The specific activity of cathepsin S was assayed using Z-VVR-AMC in fluorimetric and Z-FR-pNA in colorimetric assays[22] and determined to be 10,000 mU/mg protein.\nA peptide comprising the N-terminus of PAR2, […], was dissolved in 50 mM Tris, pH 7.0, 0.1 M NaCl, 0.1 mM EDTA, and 0.01% Tween-20 to a concentration of 100 mM. […] The reaction samples were analyzed by the Harvard Microchemistry & Proteomics Analysis Facility (Cambridge, MA). […]"}, "[2]": {"details": "cited from earlier work", "description": "To better understand the mechanisms of PAR2 activation and regulation, we sought to identify cleavage sites and downstream signaling events induced by an endogenous cysteine protease, cathepsin S. Cysteine cathepsins, including cathepsin S, have been broadly implicated in health and disease including inflammation, cardiovascular and pulmonary disease, obsesity, itch and pain[15]. […] Cathepsin S is expressed in many types of cells. […] The KVDGTS sequence is preceded by LIG, placing G^40 in the P1 postion and L^38 in the P3 postion. The finding of cleavage after glycine is consistent with what is reported in the MEROPS database and a recent report on proteomic identification of protease cleavage sites (PICS)[25]. These reports reveal that cleavage after leucine at P3 is associated with cathepsin S, but less so than with glycine at P1. Correlations were otherwise weak between these reports and the cleavage sites identified here. Cathep ..."}, "[3]": {"test_system": "luciferase-PAR2 (native PAR2)", "assay": "Gaussia luciferase release, luciferase-PAR2", "assay_type": "cell-based, human", "details": "cathepsin S 2 µM, 10 minutes, room temperature, triplicate", "description": "Gaussia luciferase cDNA was cloned, without its termination codon, into pcDNA3.1(−) as an Xho I-EcoR I fragment. Human PAR2 cDNA and its mutants, M1, M2 and M3, were generated using PCR primers designed to start after the signal sequence and end with a termination codon: […] and […] . The PCR amplified cDNAs were cloned into EcoR I and Hind III sites C-terminal to Gaussia luciferase cDNA. The resulting plasmids were called pGLPAR2, pGLPAR2M1, pGLPAR2M2 and pGLPAR2M3.\nThe plasmid DNAs pGLPAR2, pGLPAR2M1, pGLPAR2M2 and pGLPAR2M3 (10 µg of each) were transfected into 2×10^6 HeLa cells as described above and plated into 10 cm dishes. HeLa cells transfected with salmon sperm were used as controls. Forty-eight hours after transfection, the cells were washed twice with PBS, scraped and pelleted. Cells were scraped in order to eliminate the use of trypsin, which could activate PARs, and allowed for the luminescence assay to be performed in a small volume. Pelleted cells were resuspended into 200 µl PBS, and 100 µl of each was incubated with cathepsin S at a final concentration 2 µM for 10 minutes at room temperature. Untreated cells were processed by the same methods for a negative control. […] Luminescence assays were performed in triplicate on 50 µl of the supernatants according to the instructions of the manufacturer (New England Biolabs, Ipswich, MA)."}},
  "note": "Entries after “also recorded” stand apart in the source; their conditions may differ.",
  "data": [
    {"molecule": "B1", "values": [
      {"measurement": "cleavage points (in words)", "setting": "[1]", "result": "resulted in several cleavage points; also recorded: most frequent after glycine followed by leucine"},
      {"measurement": "cleavage after alanine (in words)", "setting": "[2]; PICS report", "result": "rarely cleaves after alanine"},
      {"measurement": "elastase activity and Ii chain cleavage (in words)", "setting": "[2]", "result": "potent elastase; also recorded: cleaves the Ii chain"},
      {"measurement": "pH dependence of activity (in words)", "setting": "[2]", "result": "active at neutral pH"},
      {"measurement": "receptor cleavage, luciferase luminescence (in words)", "setting": "[3]", "result": "cleaved the native and PAR2M1 receptors"}
    ]}
  ]
}
